# In patent US20260061051A1 (JUNO THERAPEUTICS, published 2026):
# T1: Human DLL3 (hDLL3) antigen (human, UniProt Q9NYJ7 27-492)
# T1 construct: Soluble analyte in SPR; also called hDLL3 protein; soluble target antigen DLL3
# T1 sequence: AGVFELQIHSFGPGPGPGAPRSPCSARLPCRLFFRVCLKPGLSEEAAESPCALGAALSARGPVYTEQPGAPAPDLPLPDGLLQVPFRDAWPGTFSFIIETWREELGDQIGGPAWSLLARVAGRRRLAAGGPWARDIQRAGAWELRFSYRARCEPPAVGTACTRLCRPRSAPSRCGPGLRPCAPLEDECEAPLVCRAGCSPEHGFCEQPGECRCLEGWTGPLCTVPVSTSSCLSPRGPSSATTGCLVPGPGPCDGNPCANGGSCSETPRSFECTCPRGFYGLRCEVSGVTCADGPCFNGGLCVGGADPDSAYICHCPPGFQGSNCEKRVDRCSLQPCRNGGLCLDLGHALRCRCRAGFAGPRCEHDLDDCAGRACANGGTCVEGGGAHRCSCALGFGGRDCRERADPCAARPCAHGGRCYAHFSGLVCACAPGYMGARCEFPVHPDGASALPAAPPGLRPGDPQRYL
# T2: Cynomolgus macaque (cyno) DLL3 expressed on 293H cells (cynomolgus macaque, UniProt Q9NYJ7 27-618 (human entry))
# T2 construct: also called Cyno DLL3 cell; cyno DLL3 ORF-GFP
# T2 chain: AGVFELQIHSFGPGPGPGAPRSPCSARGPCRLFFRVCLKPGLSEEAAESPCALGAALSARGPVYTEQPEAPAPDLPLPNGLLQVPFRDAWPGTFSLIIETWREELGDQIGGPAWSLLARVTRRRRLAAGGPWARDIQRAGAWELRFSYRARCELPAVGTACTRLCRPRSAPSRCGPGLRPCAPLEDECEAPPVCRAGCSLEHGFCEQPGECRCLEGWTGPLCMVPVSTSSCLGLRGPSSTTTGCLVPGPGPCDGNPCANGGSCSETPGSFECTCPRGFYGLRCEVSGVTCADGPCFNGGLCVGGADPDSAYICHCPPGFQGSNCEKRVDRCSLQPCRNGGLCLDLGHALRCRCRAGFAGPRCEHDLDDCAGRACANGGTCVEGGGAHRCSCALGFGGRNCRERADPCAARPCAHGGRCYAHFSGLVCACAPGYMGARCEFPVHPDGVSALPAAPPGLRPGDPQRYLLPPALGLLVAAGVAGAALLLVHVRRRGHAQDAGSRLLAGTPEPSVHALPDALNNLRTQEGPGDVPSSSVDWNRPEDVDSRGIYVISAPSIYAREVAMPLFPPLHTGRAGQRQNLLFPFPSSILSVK
# T3: Human DLL3 expressed on 293H cells (human, UniProt Q9NYJ7 27-618)
# T3 construct: also called Human DLL3 cell; human DLL3 ORF-GFP
# T3 sequence: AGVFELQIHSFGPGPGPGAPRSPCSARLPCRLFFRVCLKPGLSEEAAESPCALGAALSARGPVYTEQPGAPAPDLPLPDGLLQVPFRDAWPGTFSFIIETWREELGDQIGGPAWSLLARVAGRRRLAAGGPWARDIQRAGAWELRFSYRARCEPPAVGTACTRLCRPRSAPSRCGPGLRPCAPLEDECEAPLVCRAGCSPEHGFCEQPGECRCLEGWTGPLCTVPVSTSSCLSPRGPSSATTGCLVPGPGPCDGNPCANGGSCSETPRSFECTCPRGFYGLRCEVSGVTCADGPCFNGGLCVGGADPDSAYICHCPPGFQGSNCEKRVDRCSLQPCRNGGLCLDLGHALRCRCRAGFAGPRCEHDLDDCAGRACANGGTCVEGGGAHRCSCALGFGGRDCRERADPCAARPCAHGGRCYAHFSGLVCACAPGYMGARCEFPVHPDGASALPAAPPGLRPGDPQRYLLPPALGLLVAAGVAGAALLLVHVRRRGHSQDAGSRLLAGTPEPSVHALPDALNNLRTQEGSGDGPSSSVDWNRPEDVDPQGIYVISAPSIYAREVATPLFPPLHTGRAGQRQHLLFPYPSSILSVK
# Legend:
# [1] = target: T1, Human DLL3 (hDLL3) antigen; assay: SPR, Biacore 8K, antibody captured on protein G chip, hDLL3 as analyte, multi-cycle
# Experimental: The Biacore SPR 8K machine was used for kinetics binding analysis. The sensor surface of a protein G chip (series s Cat #29179315) was used to capture the ligands. 2 μg/ml of purified anti-DLL3 antibody was diluted in running buffer (0.01M HEPES, 0.15 NaCl, 3 mM EDTA, 0.005% Tween-20). The diluted antibody was then injected at a flow rate of 10 μL/min for 60 seconds. Human DLL3 (hDLL3) antigen was diluted in the same running buffer to 6 concentrations (30, 10, 3.33, 1.11, 0.37 and 0 nM). hDLL3 was then injected on all channels (with each channel having its own reference point) at a flow rate of 30 uL/min for an association phase of 300 seconds, followed by 600 seconds of dissociation. 6 cycles of running analyte were repeated according to analyte concentrations in ascending order. After each cycle of interaction analysis, the sensor chip surface was regenerated completely with Glycine-HCL pH 1.5 at a flow rate of […] for 60 s. The binding of the anti-DLL3 antibody and hDLL3 protein was analyzed by multi-cycle method.
# [2] = target: T2, Cynomolgus macaque (cyno) DLL3 …; assay: flow cytometry on 293H cells expressing cyno DLL3, Alexa 647 anti-human IgG1 secondary, 0.6 to 200 nM
# Experimental: (§1) Human DLL3 or cynomolgus macaque (cyno) DLL3 expressing cell lines were established by transfecting 293H cells with human DLL3 ORF-GFP or cyno DLL3 ORF-GFP plasmids and selecting stable single clone. A dose response curve for the anti-DLL3 mAb-1 binding to 293H cells expressing either human DLL3 or cyno DLL3 was generated by flow cytometry. Cells were incubated with increasing concentrations of anti-DLL3 mAb-1 in the range of 0.6 to 200 nM. Cells were washed then incubated with a secondary antibody (Alexa 647 conjugated anti-human IgG1) to measure the amount of antibody bound to the 293H cells. A dose response curve was fitted from the data using the non-linear regression function in GraphPad Prism version 8. Half-maximal concentration (EC₅₀) value was calculated from the dose response curve.
# [3] = target: T3, Human DLL3 expressed on 293H cells; assay: flow cytometry on 293H cells expressing human DLL3, Alexa 647 anti-human IgG1 secondary, 0.6 to 200 nM
# Experimental: as §1
binder,measurement,setting,value
"DLL3-mAb-1 (antibody, human IgG1, kappa, V domains shown, It was captured on a protein G chip and detected with anti-human IgG1, and it is a fully human antibody with a fixed human kappa light chain; also called anti-DLL3 mAb-1; anti-DLL3 antibody DLL3-mAb-1) VH: QVQLQESGPGLVKPSQTLSLTCTVSGDSISSDGYYWSWIRQHPGKGLEWIGYIYYSGNTYYNPSLKSRVTISVDTSKNQFSLKLTSVTAADTAIYYCAIDTASALAYWGQGTLVTVSS VL: not shown",Kd,[1],58.8 nM
same,koff,[1],0.0137 s⁻¹
same,kon,[1],233000 M⁻¹ s⁻¹
same,EC50,[2],10.4 nM
same,EC50,[3],15.6 nM
